Like-named read-outs stand apart in the source and are kept apart here.
What was measured:
[1] = target: E. coli wild-type LacY (Escherichia coli, UniProt P02920); details: cited from earlier work
[2] = system: lactose permease genes; assay: Expression analysis of lactose permease genes by qPCR; format: cell-based, E. coli BL21(DE3); details: normalized to gapA, compared with parental strain, FIG. 3
Procedure: A metabolically engineering derivative of E. coli BL21(DE3) which was capable of producing lacto-N-tetraose (LNT) was obtained by genetic engineering.
For expression analyses individual clones obtained from above-referenced mutagenesis approach were inoculated in 25 ml mineral salts medium in shaking flasks. Expression analysis of each clone was performed in 3 replicates. The bacterial cells were grown at 30° C. and a relative humidity of 80% with constant agitation at 120 rpm. After 20 h of culturing, the optical densities of these precultures were determined and the main cultures were seeded to an OD600 of 0.05 in 25 ml of mineral salts medium. The main cultures were cultured for 20 h under the same conditions as the pre-cultures were cultured. Then the bacterial cells were harvested by centrifugation and used for extraction of RNA and subsequent expression analysis by qPCR. The relative quantification of expression levels was performed using the comparative Δ cycle threshold method, the calculated relative expression values were normalized to gapA and compared with the expression level in the parental strain used as control.

[3] = system: bacterial LNT production strains; assay: Lactose sensitivity of bacterial LNT production strains (OD600 in shaking flasks); format: cell-based, E. coli BL21(DE3); details: 20 hours after addition, compared to growth in the absence of lactose
Procedure: The culture medium used to grow the cells for the production of the desired oligosaccharide contained: 3 g/L KH2PO4, 12 g/L K2HPO4, 5 g/L (NH4)SO4, 0.3 g/L citric acid, 0.1 g/L NaCl, 2 g/L MgSO4×7 H2O and 0.015 g/L CaCl2×6 H2O, supplemented with 1 ml/L trace element solution (54.4 g/L ammonium ferric citrate, 9.8 g/L MnCl2×4 H2O, 1.6 g/L […], 1 g/L CuCl2×2 H2O, 1.9 g/L MnCl2×4 H2O, 1.1 g/L Na2MoO4×2 H2O, 1.5 g/L Na2SeO3, 1.5 g/L NiSO4×6 H2O). The pH of the medium was adjusted to 7.0. Lactose was added to the medium in a concentration of 10 mM to 25 mM for synthesis of the desired oligosaccharide by the cells and for testing the cells' sensitivity to lactose.
The bacterial cells were grown at 30° C. and 80% relative humidity with constant agitation at 120 rpm. After 20 h culturing, the optical density of the pre-cultures was determined and the main cultures were inoculated to an OD600 of 0.3 in 25 ml of mineral salts medium. Lactose was added to the culture medium two hours after inoculation of the cultures to final concentrations of 10 or 25 mM. The optical densities (OD600) of the main cultures were determined 20 hours after addition of lactose.

[4] = system: E. coli strains expressing different variants of the E. coli lactose permease LacY; format: cell-based
Procedure: Bacterial cell pellets from these cultures were used to inoculate 100 ml minimal medium in shaking flasks. These cultures were incubated for 16 hours at 37° C. in a shaker. The bacterial cells were then sedimented by centrifugation and the resulting pellets were washed twice with fresh cold (4° C.) culture medium and finally resuspended in cold medium. The optical density (OD600) of the cell suspension was set to 5 with cold medium, and the cell suspension is were stored on ice until use for the internalization assay.
Three minutes prior to the transport assay, the bacterial cells were placed in a 37° C. thermo block. […] […] The bacterial cells on the filter were washed twice with 100 mM LiCl and the filter was used subsequently to quantify remaining radioactivity in a Tricarb 2800 scintillation counter (Perkin Elmar, Waltham, MA). To this end, the filters were transferred into scintillation tubes and overlaid with 6 ml Rotiszint eco plus (Roth, Karlsruhe, DE).
In a second set of experiments, the transport assays were started by addition of a mixture of ^14C-labelled lactose and non-radiolabeled lactose to a final concentration of 5 mM lactose and 550,000 dpm. The bacterial cells were collected by filtration after 60 seconds incubation, and washed twice with 3 ml medium containing 5 mM unlabelled lactose.

[5] = system: LNT-producing E. coli strain; assay: Lacto-N-tetraose production in lab scale fermentation (3 litre); format: cell-based
Procedure: The identity of lacto-N-tetraose being produced was determined by multiple reaction monitoring (MRM) using an LC triple-quadrupole MS detection system (Shimadzu LCMS-8050). Precursor ions were selected and analyzed in quadrupole 1, followed by collision-induced fragmentation (CID) with argon and selection of fragment ions in quadrupole 3.
The oligosaccharide LNT in particle-free culture supernatants or cytoplasmic fractions were separated by high performance liquid chromatography (HPLC) using a Waters XBridge Amide HPLC column (3.5 μm, 2.1 […] 50 mm) for both neutral or acidic sugars. Neutral sugars were eluted with isocratic flow of H2O with 0.1% (v/v) ammonium hydroxide. The HPLC system encompasses a Shimadzu Nexera X2 SIL-30ACMP autosampler run at 8° C., a Shimadzu LC-20AD pump, and a Shimadzu CTO-20AC column oven running at 35° C. for elution of neutral sugars and was adjusted to 50° C. for elution of acidic sugars. For the analysis of LNT 1 μl was injected into the instrument. Flow rate was set 0.3 mL/min corresponding to a run time of 5 min. LNT was analyzed in negative ion mode. The mass spectrometer was operated at unit resolution. Collision energy, Q1 and Q3 pre-bias were optimized for each analyte. Quantification methods were established using commercially available standards (Carbosynth and Elicityl).
The impact of reduced lactose import and reduced lactose sensitivity by a bacterial strain on its oligosaccharide production was analyzed in a small-scale fermentation.
In a first set of fermentations each of the bacterial strains was inoculated from a preculture in a fermentation broth containing 20 mM lactose.
In these cultures, the lactose feed (2.5 ml/L/h) was started at the end of the batch phase.

Sequence of E. coli wild-type LacY (P02920 whole entry): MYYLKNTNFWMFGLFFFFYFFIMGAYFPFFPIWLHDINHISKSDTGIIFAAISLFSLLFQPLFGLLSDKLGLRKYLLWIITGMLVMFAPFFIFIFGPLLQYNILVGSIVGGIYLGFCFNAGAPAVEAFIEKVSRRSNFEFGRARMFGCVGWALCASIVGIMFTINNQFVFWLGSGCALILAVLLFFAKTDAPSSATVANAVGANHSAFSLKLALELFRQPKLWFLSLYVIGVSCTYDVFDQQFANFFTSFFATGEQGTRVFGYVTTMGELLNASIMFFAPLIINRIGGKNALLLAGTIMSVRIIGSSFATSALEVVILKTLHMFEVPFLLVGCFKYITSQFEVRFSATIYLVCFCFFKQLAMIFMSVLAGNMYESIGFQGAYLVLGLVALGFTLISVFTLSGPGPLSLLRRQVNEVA

OC[C@H]1O[C@@H](O[C@@H]2[C@@H](CO)OC(O)(CO)[C@H]2O)[C@H](O)[C@@H](O)[C@H]1O (mixture of isomers) [lactulose]
Km [1]: 240 µM

CS[C@@H]1O[C@H](CO)[C@H](O)[C@H](O)[C@H]1O [TMG, methyl-1-thio-β,D-galactopyranoside, reference compound]
Km [1]: 540 µM

O=C[C@H](O)[C@@H](O)[C@H](O[C@@H]1O[C@H](CO)[C@H](O)[C@H](O)[C@H]1O)[C@H](O)CO [lactose, β-D-galactopyranosyl-(1→4)-D-glucose]
Km [1]: 620 µM

OC[C@H]1O[C@H](OCC2O[C@@H](O)[C@H](O)[C@@H](O)[C@@H]2O)[C@H](O)[C@@H](O)[C@H]1O (stereo partly shown) [melibiose]
Km [1]: 240 µM

B1: LacY(L293R): E. coli LacY variant with leucine at position 293 substituted with arginine (protein, UniProt P02920 1-417, looked up, variant L293R)
Lactose permease: MYYLKNTNFWMFGLFFFFYFFIMGAYFPFFPIWLHDINHISKSDTGIIFAAISLFSLLFQPLFGLLSDKLGLRKYLLWIITGMLVMFAPFFIFIFGPLLQYNILVGSIVGGIYLGFCFNAGAPAVEAFIEKVSRRSNFEFGRARMFGCVGWALCASIVGIMFTINNQFVFWLGSGCALILAVLLFFAKTDAPSSATVANAVGANHSAFSLKLALELFRQPKLWFLSLYVIGVSCTYDVFDQQFANFFTSFFATGEQGTRVFGYVTTMGELLNASIMFFAPLIINRIGGKNALRLAGTIMSVRIIGSSFATSALEVVILKTLHMFEVPFLLVGCFKYITSQFEVRFSATIYLVCFCFFKQLAMIFMSVLAGNMYESIGFQGAYLVLGLVALGFTLISVFTLSGPGPLSLLRRQVNEVA
relative expression [2]: at the same level | growth (OD600) ([3]; 10 mM lactose): not reduced | growth (OD600) ([3]; 25 mM lactose): not reduced | lactose internalization (radioactivity incorporated) ([4]; exogenous lactose 0.5 mM, 30 seconds, FIG. 5A): reduced but detectable | lactose internalization (radioactivity incorporated) ([4]; exogenous lactose 5 mM, 60 seconds, FIG. 5B): reduced but detectable | growth kinetics throughout the fermentation ([5]; LNT fermentation, FIG. 7): regular growth kinetics | optical density reached in the culture ([5]; LNT fermentation, FIG. 7, compared to strain bearing LacY): higher | setback in the OC600 and lactose-caused cell lysis ([5]; continuous lactose feed 3.2 ml/L/h, lactose level kept high): without causing any setback in the OC600 and without apparent lactose-caused cell lysis | growth ([5]; fermentation broth containing 20 mM lactose at inoculation): did not display any problems in growth

Reference: patent US20240110213A1 (Chr. Hansen HMO GmbH, priority 2020, published 2024)
